Results published in paper PMC545800.
No end group written: not given here.

T1: tetratricopeptide repeat (TPR) domain of S. cerevisiae PEX5 (Gal4pBD-TPR, plasmid pAH987) (S. cerevisiae)
T1 sequence (P35056 whole entry, looked up): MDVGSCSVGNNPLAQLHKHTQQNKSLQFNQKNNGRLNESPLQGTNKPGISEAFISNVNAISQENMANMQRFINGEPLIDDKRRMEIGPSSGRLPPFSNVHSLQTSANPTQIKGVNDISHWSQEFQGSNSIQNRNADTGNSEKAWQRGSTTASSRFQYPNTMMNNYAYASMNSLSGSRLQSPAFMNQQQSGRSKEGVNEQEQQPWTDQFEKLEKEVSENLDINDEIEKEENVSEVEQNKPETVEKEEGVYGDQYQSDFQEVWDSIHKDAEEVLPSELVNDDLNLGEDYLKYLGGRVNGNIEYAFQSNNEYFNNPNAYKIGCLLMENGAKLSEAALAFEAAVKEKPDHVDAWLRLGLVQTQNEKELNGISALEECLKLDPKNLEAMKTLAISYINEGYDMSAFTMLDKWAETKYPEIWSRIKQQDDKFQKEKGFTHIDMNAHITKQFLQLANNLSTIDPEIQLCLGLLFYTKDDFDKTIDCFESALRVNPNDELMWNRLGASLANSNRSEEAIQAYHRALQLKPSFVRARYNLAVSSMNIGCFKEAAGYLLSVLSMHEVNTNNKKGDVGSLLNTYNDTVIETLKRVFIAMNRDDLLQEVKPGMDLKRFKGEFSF


Key:
[1] = target: T1, tetratricopeptide repeat (TPR) domain of S. cerevisiae PEX5 (Gal4pBD-TPR, plasmid pAH987) (S. cerevisiae); assay: two-hybrid; yeast strain PCY3 co-transformed with Gal4pAD-16mer (pGAD.GH) and Gal4pBD-TPR of PEX5 (pAH987 yeast or hP87 human); quantitative beta-galactosidase activity, cells grown in SC-leu-trp at 30°C; lower limit of around 10 Miller Units per mg protein for a productive interaction
[2] = target: tetratricopeptide repeat (TPR) domain of human PEX5 (Gal4pBD-TPR, plasmid hP87) (Homo sapiens); assay: as above

| Molecule | beta-galactosidase activity (Units/mg protein) [1] | beta-galactosidase activity (Units/mg protein) [2] |
| --- | --- | --- |
| LLMEAEDYQATYQSNL [carboxy-terminal 16-mer of frog tyrosinase (Gal4pAD-16mer)] |  | 91 |
| PLKDKQLYANEGVSRL (not fully specified (N-terminus)) [carboxy-terminal 16-mer of Drosophila sevenless protein (Gal4pAD-16mer)] |  | 29 |
| EEVIRKIAEGLNKAKF (not fully specified (N-terminus)) [carboxy-terminal 16-mer of Archaeoglobus fulgidus 2-nitropropane dioxygenase (Gal4pAD-16mer)] | 206 |  |
| FAVDQRKLEDLLAAKL [carboxy-terminal 16-mer of E. coli transaldolase A (Gal4pAD-16mer)] | 164 | 566 |
| HCKGKDLSKYLASCNL [carboxy-terminal 16-mer of dog lysozyme C from milk (Gal4pAD-16mer)] |  | 25 |
| EKGIKYKFEVYEKSKL [carboxy-terminal 16 residues of the DHFR-SKL construct (Gal4pAD-16mer)] | 195 |  |
| GMGRREGHPDVGPARL [carboxy-terminal 16-mer of Methanopyrus kandleri riboflavin synthase (Gal4pAD-16mer)] | 45 | 358 |
| DINNTIDAARRVFAKL (not fully specified (N-terminus)) [carboxy-terminal 16-mer of Escherichia coli glutamate-1-semialdehyde 2,1-aminomutase (Gal4pAD-16mer)] | 270 | 473 |

The next lines start with the values.

| beta-galactosidase activity (Units/mg protein) [1] | beta-galactosidase activity (Units/mg protein) [2] | Molecule |
| --- | --- | --- |
| 482 |  | carboxy-terminal 16-mer of yeast mitochondrial ribosomal protein L2, or MRP7 (Gal4pAD-16mer) (peptide) |
|  | 73 | RCKGTDVQAWIRGCRL [carboxy-terminal 16-mer of hen egg-white lysozyme (Gal4pAD-16mer)] |
|  | 242 | LLMEKEDYHSLYQSHL [carboxy-terminal 16-mer of human tyrosinase (Gal4pAD-16mer)] |
|  | 310 | FDRDQNRVGLAEAARL (not fully specified (N-terminus)) [carboxy-terminal 16-mer of the precursor of lysosomal bovine cathepsin D (Gal4pAD-16mer)] |
